From the DeepSol protein solubility set

Assay: soluble on expression in E. coli; label from the status in PepcDB or PDB records

Sequence	soluble on expression in E. coli
MSLTANRDKFRPVYHHTPLYGWMNDANGLVYKDGEYHLYFQYNPYGSVWGNMHWGHSVSKDLVHWEHLDPAIARDTLGHIFSGSAIVDKHNSAGYGENTIVAFYTSHRNIPSGQSQVQSMAYSTDNGRTYTKYEQNPVLTPFDGLQNFRDPKVFWYEPEQKWIMIVSADKNMRFYSSANLKQWEYMSEFGEGFGPQPNQFECPDFIQLPVDGDRTRMKWVMIVNINPGFVYGGSGTMYFTGDFDGHQFVCDTKPEVVKWLDWGKDHYATVCFSNTGDRVIAVPWMSNWQYANYTPIQQFRSANALPRELSLYTGEDKQLYLSAAPVKETEHLRKDSKKLDDFTVNGEKRLETLFENNDGAFELELQLVSAGKEAGFELLNSLGEKVKIYLDASEGRVVMDRAESGIVDFGKKVKPHDLDTEESYARYKEVTVNYKNDFALGTWAPINTAKAHKIQVFVDNGSVELFVDGGRVAMTNLVFPNEPYNSLRFYSKGGEMKISNFTIYKLGLEGHHHHHH	soluble
MGRYSVKRYKTKRRTRDLDLIYNDLSTKESVQKLLNQPLDETKPGLGQHYCIHCAKYMETAIALKTHLKGKVHKRRVKELRGVPYTQEVSDAAAGYNLNKFLNRVQEITQSVGPEKESNEALLKEHLDSTLANVKTTEPTLPWAAADAEANTAAVTEAESTASAST	soluble
MSLSRLSSPQTFSRVFIVARGAATGHAVAPSSDNSIGYFEKIAYRFKGIPLPTETEAPKSMFDACNKEWSAPELLPSVPKDFKEHPDRDLTNYPYPSRPMYPPKTRLLMMPDSWFTAFQKVTGTSGPYLFFGGLFAFLVNKELWVFEEQGHMTVGWILFYLLVSRTAGYKIDAGLYKDYQERVGFFKGLIQEDLKEAVDFRKTSAAQTASFAALKEGMPTSLKDSMQLQLEAAYRKNVQTISNEIKRRIEYLKETEETKARFERDQLLKLINDSVEKQVSQKDFQEKFLQNAIQQLKGIAV	not soluble
MGPTPHIAVIGGGSTGAGIARDLAMRGLDVTLVEQGNLTHGTTGRMHGLLHSGGRYAVSDQASATECIEENRVLRDIASHCVEMTGGLFVKRPEDSEEYFQKKLNGCEECGIPAEVVSGEEARAMEPHLAKDIDKAISVPDGAIDPFRLVVANAASAQEHGARIETHTKVTDLLVESGEVVGIEVEHDSGPGKRVHGTEGGTEQIRADYVVNATGAWAGRIGDMAGLDIEVRPSKGVMTIMNIRQVDTVINRCRPKGDADIVVPHETTAILGTTDEEVEDPEDYPEEQWEVDMMIDTLSELIPMLDEARTIRSFWGVRPLYEPPDVGSDDPTDITRDFFLLDHDERDDLPGMTSIVGGKFTTYRMMGEQIADHVCGKFGIDADCRTADEPLPGSEDFSVLRDYMDEFGLRSPIGRRSVERLGSRADDVLKTDGPNPTVCACEGVTRAEIQDAIGGSGSDLNAVRIRTRASMGNCQGGFCSHRMASELHSEYDEPVVREAWDELLQERWKGQRHALWGEQLSQAALNYALHATTQNRDQDPADGEPVDFSAFDSGRGQTGGSVDSADVAADGGTNGYLEHHHHHH	not soluble
MSHLPLLALSPLDGRYLSKVDTLRPIFSEYGLIKSRVKVEIAWLLALAAEPNIVELAPFSVAAQTRLRVLADGLTIEHAARVKEIEHTTNHDVKAVEYFIKEQLKDDIELRRGLEFVHFACTSEDINNLSYSLMLQQARDDVLLPTLDGIATHLRTLAHAQAAQPMLSRTHGQTASPTTLGKEIANVVARLERQRHQIATIALSGKINGAVGNYNAHTISYPEVNWPALAQRFVESLGLVFNPYTTQIEPHDTIAEISDAIRRANTILIDLARDLWGYISLGYFKQKLKEGEIGSSTMPHKVNPIDFENAEGNFGVANALFEHFSTKLPISRWQRDLTDSTVLRALGTAFGHTQVALDSLNKGLHKLSPNPERIDADLDAAWEVLAEAVQTIMRRHNLPNPYEQLKALTRGQGITADSMRAFIETLDLPTEAKQRLHDLTPRAYTGLAKQLALNI	not soluble
MGSDKIHHHHHHMNDYKALRTFLLAAEKRNFAQVARELDMTPAAVTRAIAALEAELGVQLFVRTTRQVSLTTDGAIFAAQLQPAVKTIEDARREVMNAHKADEGRLRISAPTWFGKAVLPPILSAFKERYPKMSFEISLSDGLVNIVDDDYDLAIRISSQPSDKFTIWRKIRVVPRILVAAPGSRFVDMQHPNELTPDDCLAYSGDSRRENWVLSDGGSSITISAGRAFSANNGEVLADIAADGAGVAMLPGFHIFEHLRTGRLVHVFKGWAPPDLWLTLYYPPYQALPPRIASFSKFFEEQVPAHMVMLD	not soluble
MRVVAIGVGGAGGRIVDALHEDDSTREASYLAGGSVLETDRGALAALDAVSEEDRHHFGHSGFGGDADSPRERIEALAEDDHVEMRRAVDSAITSDAAAIIVIAGVGGATGSVIAPKLTDALQRIYDRPVYAVSVLPATHEEVPPENPARAIAAFESAANAQLVFDNDAWVDDRNDVEDVTDGLNAELAMRLGALFSAGEAVTAESVGQRVVDASEVISTLDEGGLATIGFARQPLGTDGDDGSLLDRARELVGMDETTVDEVESIKAVETTLRQATNGRLTFDCPRDAARSGLLVVSGPPEWLHQTAVSDGQSWLADEIGSVQLRTGDNPMPGGDELTILVLLGGIRGAPRIKEIQAATDLEHHHHHH	soluble
MLRRKPTRLELKLDDTEEFESVKKELESRKKQRDEVDVVGVATSSEMSGAAGGTADGKTREQMIHERIGYKPHPKPNTLPSLFGNLQF	soluble
MYVLIGGAGLIGQQLARQVLDQGHTVAVIDQDPQVCKMVRDRLGAMAFEGSAVNTDILLEAGICRADAVAAVLRQDALNLALVTLACHYGVSRIISRISQQDFIEPMRLAGAHHIISTVDLVVSTMVNAIECPQVESMLHFEQGQIEVFKLTLDSQSPVIGRSVAAIAQDRNFPSSSLIIGYQSHPQADLVIPSGNTVLEANATVLLATKPGLVQSLVNFLMPSLFSPLEHHHHHH	not soluble
MEQRFPELNVDLSFEQEFQMRVMEEQVSAMSLQEARELLLQASRLLMMKDNVIRSLVKRAARS	soluble
MEKLAAKVLENFDFLKKLLRDRAECGESEITIYDDPVTIVVKRDRIDFFINEEYHGSVGVGFNTLSDEIREEARLWLEGLAGMKFKRYAVRR	not soluble
GMDRTLTHQPQEYAVSVSVGEVKLKGNLVIPNGATGIVLFAHGSGSSRYSPRNRYVAEVLQQAGLATLLIDLLTQEEEEIDLRTRHLRFDIGLLASRLVGATDWLTHNPDTQHLKVGYFGASTGGGAALVAAAERPETVQAVVSRGGRPDLAPSALPHVKAPTLLIVGGYDLPVIAMNEDALEQLQTSKRLVIIPRASHLFEEPGALTAVAQLASEWFMHYLR	soluble
MRGSHHHHHHGSACMFSNKTRQDSIQKMQQEELDLLIIGGGITGAGVAVQAAASGIKTGLIEMQDFAEGTSSRSTKLVHGGIRYLKTFDVEVVADTVGERAVVQGIAPHIPKPDPMLLPIYEDEGATTFNMFSVKVAMDLYDKLANVTGTKYENYTLTPEEVLEREPFLKKEGLKGAGVYLDFRNNDARLVIDNIKKAAEDGAYLVSKMKAVGFLYEGDQIVGVKARDLLTDEVIEIKAKLVINTSGPWVDKVRNLNFTRPVSPKMRPTKGIHLVVDAKKLPVPQPTYFDTGKQDGRMVFAIPRENKTYFGTTDTDYQGDFTDPKVTQEDVDYLLDVINHRYPEANITLADIEASWAGLRPLLIGNSGSPSTISRGSSLEREPDGLLTLSGGKITDYRKMAEGALRLIRQLLKEEYGIETKEIDSKKYQISGGNFDPTKLEETVTELAKEGVAAGLEEEDATYIADFYGTNARRIFELAKEMAPYPGLSLAESARLRYGLEEEMVLAPGDYLIRRTNHLLFERDQLDEIKQPVIDAIAEYFGWTEEEKAQQTKRLEALIAESDLRELKGEK	soluble
MSLIFILGIFYYLTQPLKSNSVVFIPQGSISQIITYLKQNKYQMSNIDKYILFFLGHPQSGWINIGTKDLNRAEFLHKLTIAKAALQTITLIPGETSVIFLEQAAKQLGLDKDILLKEFQAQAPYDEGVFLPETYKIPKGITENLLIQMLLNHAEISNKKTSEKIFGDYNPKKWHQYIIIASVIQKEAANDNEMPIVASVIYNRLKKGMKLQMDGTLNYGIYSHVKVTPQRIRQDNSFYNTYKFTGLPKEAVCNVSLAAIRAAIFPLKTDYLYFVRDKNTGVHIFSTNIDDHNKAINLQKGKEGHHHHHH	not soluble
MSYTKEQLMLAFSYMSYYGITHTGSAKKNAELILKKMKEALKTWKPFQEDDWEVVWGPAVYTMPFTIFNDAMMYVIQKKGAEGEYVIAIRGTNPVSISDWLFNDFMVSAMKKWPYASVEGRILKISESTSYGLKTLQKLKPKSHIPGENKTILQFLNEKIGPEGKAKICVTGHSKGGALSSTLALWLKDIQGVKLSQNIDISTIPFAGPTAGNADFADYFDDCLGDQCTRIANSLDIVPYAWNTNSLKKLKSIYISEQASVKPLLYQRALIRAMIAETKGKKYKQIKAETPPLEGNINPILIEYLVQAAYQHVVGYPELMGMMDDIPLTDIFEDAIAGLLHHHHHH	soluble
MNSNMVFARVNEADVTEAILDGFYSSLKKHLRSDVIVVGAGPAGLTAAWRLAEAGARVLIVEQNNYLGGGLWLGGYFMNPVTIRAPAQRILDELEVPYEAVKPGLYRTKGPLLAAKLAARALEAGAEVLNLTMLDDVIVENSRVAGVVVNWSPVQGLPRQITCVDPVGLRAEYVVDATGHDAVVTRKLAERGMVEASKLGPMWVERSEDLVVEKTGEVYPGLVVAGIAVAEVYGLPRMGPTFGAMLLSGEKAAALIGEKLGLKVKVAAAPASQA	soluble
MKIEELIAIRRDLHRIPELGFQEFKTQQYLLNVLEQYPQDRIEIEKWRTGLFVKVNGTAPEKMLAYRADIDALSIEEQTGLPFASEHHGNMHACGHDLHMTIALGIIDHFVHHPVKHDLLFLFQPAEEGPGGAEPMLESDVLKKWQPDFITALHIAPELPVGTIATKSGLLFANTSELVIDLEGKGGHAAYPHLAEDMVVAASTLVTQLQTIISRNTDPLDSAVITVGTITGGSAQNIIAETAHLEGTIRTLSEESMKQVKERIEDVVKGIEIGFRCKGKVTYPSVYHQVYNTSGLTEEFMSFVAEHQLATVIEAKEAMTGEDFGYMLKKYPGFMFWLGADSEHGLHHAKLNPDENAIETAVHVMTGYFSVYAN	not soluble
KVQSTFAKYSRVRSMTGMTGAEAAKRLLNSQGIYDVQVRKVAGNLTDHYDPRNKTLNLSESVYDSPSVAAIGVAAHECGHAIQDNTEYAPLKIRGAIVPVVNIGTQLSWPM	not soluble
GPLGSMASATLGSSSSSASPAVAELCQNTPETFLEASKLLLTYADNILRNPSDEKYRSIRIGNTAFSTRLLPVRGAVECLFEMGFEEGETHLIFPKKASVEQLQKIRDLIAIERSSRLDGSSKK	soluble
MEQQLKDIISACDLAIQNEDFDTLMNYYSEDAVLVVKPGMIARGKEEIKKAFITIANYFNHHIVPTQGKMILLEAGDTVLVLSQTLLDSDKKDSEYAMERRATYVFKKNAQGEWLCVIDNSYGTDLIGVMAGDPLEHHHHHH	soluble
MIFDHGKKLMKRVERYSGCSSGSLVAAMFIFNPEKLVFLVSFRKTKGRLPLFSLFLLNFRNLCILSISEAVEEIYKMADEVNDKTLGAMSPGFVISDRLRKVVEKFLPDDVAKANDLLFVSVTKLKTWKNELISNFESKIDLIDCLMASCYHPMYSSGLNGKAPILRGEAYIDGGYSNMIPEFLDMRTVTVSAFAGDADICPVEKSALFNDFMFAFFNQNMKLTLSNMKRVTNALFPPTRAILQEYFNAGARDAEKLLKDSGFYE	not soluble
